Test results reported in US5767072A (priority 1993, dated 1998).
Where no end group is shown, it is not given here.

Columns and labels:
rgp120 [1] = target: T1, rgp120 (Human immunodeficiency virus type 1 group M subtype B, UniProt P03375); assay: inhibition of the binding of rCD4-HRP to rgp120 by rCD4 and CD4 peptides; set-up: species or system HIV-1; details: even at concentrations of 50 μM
Protocol: The relative affinity of the CD4-peptides-OVA for rgp120 vs rCD4 was calculated by dividing the […].

HIV infected cells = format: cell-based
gp120 = gp120 (Human immunodeficiency virus type 1 group M subtype B, UniProt P03375); format: binding, HIV-1
rgp120 [2] = target: T1, rgp120; assay: direct ELISA binding of peptide-OVA to rgp120; set-up: species or system HIV-1
Protocol: CD4-peptide (41-84)-OVA (.circle-solid.); CD4-peptide (40-57)-OVA (.smallcircle.); CD4-peptide (81-92)-OVA (.box-solid.). Control peptide-OVA and OVA (.box-solid.).
Wells coated with rgp120 and blocked as described above were treated with various concentrations of peptide-OVA or OVA (control) in 100 μl and the plate was incubated for 2 hr at 25° C. The plates were washed and then incubated with rabbit IgG anti-OVA coupled to HRP (5 μl/ml) for 2 hr at 25° C. The binding of the labeled antibody was detected as described above. Linear regression curves were generated by plotting the absorption vs the concentration of peptide-OVA.

For TYICEVEDGKEE [CD4-peptide (81-92)], the “inhibition of the binding of rCD4 to gp120 by free peptides” value (rgp120 [1]) was “did not inhibit the binding of rCD4 to gp120”.

CCN(CC)CCCC(C)Nc1ccnc2cc(Cl)ccc12 (centres unmarked) [chloroquine] was tested, and the “anticellular activity against HIV infected cells” value (HIV infected cells) was “significant anticellular activity”.

For “Gln-Gly-Ser-Phe-Leu-Thr-Lys-Gly-Pro-Ser-Lys-Leu-Asn-Asp-Arg-^3 H-Ala-Asp-Ser [CD4-peptide (40-57)]”, the “inhibition of the binding of rCD4 to gp120 by free peptides” value (rgp120 [1]) was “did not inhibit the binding of rCD4 to gp120”.

In the case of GSFLTKGPSKLNDRADS [peptide 41-57], the “inhibition of the binding of CD4 to gp120” value (gp120) is reported as “unable to inhibit the binding of CD4 to gp120”.

B1: OVA: ovalbumin, carrier protein control (protein, UniProt P01012 2-386, looked up)
Ovalbumin: GSIGAASMEFCFDVFKELKVHHANENIFYCPIAIMSALAMVYLGAKDSTRTQINKVVRFDKLPGFGDSIEAQCGTSVNVHSSLRDILNQITKPNDVYSFSLASRLYAEERYPILPEYLQCVKELYRGGLEPINFQTAADQARELINSWVESQTNGIIRNVLQPSSVDSQTAMVLVNAIVFKGLWEKAFKDEDTQAMPFRVTEQESKPVQMMYQIGLFRVASMASEKMKILELPFASGTMSMLVLLPDEVSGLEQLESIINFEKLTEWTSSNVMEERKIKVYLPRMKMEEKYNLTSVLMAMGITDVFSSSANLSGISSAESLKISQAVHAAHAEINEAGREVVGSAEAGVDAASVSEEFRADHPFLFCIKHIATNAVLFFGRCVSP
In the case of B1, the “binding to gp120 in direct ELISA” value (rgp120 [2]) is reported as “did not bind gp120”.
